From patent publication EP4722254A1 (Sunshine Guojian Pharmaceutical (Shanghai) Co., Ltd., dated 2026)
Where “and” joins values, the source holds several entries; their conditions need not be identical. Equal values may be shown once. Values belong to the binder of their own block, whether it stands above or below them.

Columns and labels:
[1] = molecular target: T1, Recombinant Human-FGFR2-His protein (human, UniProt P21802-3 22-378, limits assumed); assay: ELISA, Human-FGFR2-His coated, anti-human Fc-HRP detection
T1 construct: Bought protein; not shown: His tag

FGFR2 on SNU-16 cells = FGFR2 on SNU-16 cells (human, UniProt P21802 22-821); assay: cell-based or functional assay
[2] = molecular target: T2, Recombinant Human-PD-1-His protein (human, UniProt Q15116 25-167, limits assumed); assay: ELISA, Human-PD-1-His coated, anti-human Fc-HRP detection
T2 construct: not shown: His tag

[3] = molecular target: T3, PD-1 expressed on the surface of Jurkat-PD-1-NFAT-luc cells (UniProt Q15116 25-288, limits assumed); assay: cell-based or functional assay
[4] = molecular target: T3, PD-1 expressed on the surface of …; assay: flow cytometry on Jurkat-PD-1-NFAT-luc cells, anti-human Fab-FITC detection

T2 sequence (Q15116 25-167 limits assumed): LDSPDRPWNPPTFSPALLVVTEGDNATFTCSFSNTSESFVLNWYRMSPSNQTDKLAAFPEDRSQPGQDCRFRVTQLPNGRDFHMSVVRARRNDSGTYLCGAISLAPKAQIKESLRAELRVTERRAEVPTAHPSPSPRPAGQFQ
T1 sequence (P21802 other isoform, or with tags, fused parts or gaps limits assumed): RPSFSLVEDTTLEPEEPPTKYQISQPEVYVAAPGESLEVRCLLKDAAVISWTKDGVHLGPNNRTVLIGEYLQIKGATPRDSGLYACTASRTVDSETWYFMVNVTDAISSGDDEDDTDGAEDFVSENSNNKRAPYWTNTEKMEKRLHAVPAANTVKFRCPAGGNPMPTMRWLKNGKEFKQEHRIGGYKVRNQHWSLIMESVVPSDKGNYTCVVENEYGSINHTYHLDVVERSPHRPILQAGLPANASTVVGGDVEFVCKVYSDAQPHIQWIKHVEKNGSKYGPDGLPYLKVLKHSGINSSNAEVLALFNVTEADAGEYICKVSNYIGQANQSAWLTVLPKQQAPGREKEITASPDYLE
T3 sequence (Q15116 25-288 limits assumed): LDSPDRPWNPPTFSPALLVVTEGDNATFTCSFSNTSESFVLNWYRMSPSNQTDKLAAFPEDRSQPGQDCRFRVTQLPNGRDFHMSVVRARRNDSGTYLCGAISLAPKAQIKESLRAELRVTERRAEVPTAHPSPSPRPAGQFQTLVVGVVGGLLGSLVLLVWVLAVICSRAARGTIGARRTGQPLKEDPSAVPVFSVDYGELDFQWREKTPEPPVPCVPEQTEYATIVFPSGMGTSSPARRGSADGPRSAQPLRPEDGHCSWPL
Sequence of FGFR2 on SNU-16 cells (P21802 22-821): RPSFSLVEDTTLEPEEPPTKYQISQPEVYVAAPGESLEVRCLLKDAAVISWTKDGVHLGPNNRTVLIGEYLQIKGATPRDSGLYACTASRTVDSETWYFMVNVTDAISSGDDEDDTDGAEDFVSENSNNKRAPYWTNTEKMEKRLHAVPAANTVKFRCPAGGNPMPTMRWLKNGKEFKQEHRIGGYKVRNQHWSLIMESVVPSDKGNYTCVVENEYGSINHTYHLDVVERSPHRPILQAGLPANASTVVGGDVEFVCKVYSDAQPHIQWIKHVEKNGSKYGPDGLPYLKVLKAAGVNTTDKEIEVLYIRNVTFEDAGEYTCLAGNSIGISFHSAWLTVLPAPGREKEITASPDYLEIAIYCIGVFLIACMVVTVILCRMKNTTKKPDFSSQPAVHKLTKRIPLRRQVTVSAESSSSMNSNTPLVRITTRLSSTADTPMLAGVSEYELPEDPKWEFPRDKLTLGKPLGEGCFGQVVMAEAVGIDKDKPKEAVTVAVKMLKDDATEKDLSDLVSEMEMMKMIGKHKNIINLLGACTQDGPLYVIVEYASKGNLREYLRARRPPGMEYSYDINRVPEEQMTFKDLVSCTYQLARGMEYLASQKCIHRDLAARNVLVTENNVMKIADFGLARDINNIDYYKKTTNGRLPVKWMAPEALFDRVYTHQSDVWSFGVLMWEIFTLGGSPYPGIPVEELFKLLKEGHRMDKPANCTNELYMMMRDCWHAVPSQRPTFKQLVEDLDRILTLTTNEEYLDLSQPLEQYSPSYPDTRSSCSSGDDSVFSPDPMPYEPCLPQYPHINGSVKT

- EC50 [1]: 0.0392 nM and 0.0297 nM
B1: anti-FGFR2 monoclonal antibody (antibody, human IgG1, kappa, V domains shown)
VH: QVQLVQSGAEVKKPGSSVKVSCKASGYTFTSYWMHWVRQAPGQGLEWMGAIYPGNSDTDYSGKFKGRVTITADESTSTAYMELSSLRSEDTAVYYCSKFDYWGQGTLVTVSS
VL: EIVLTQSPATLSLSPGERATLSCRASSSVNYMYWYQQKPGQAPRPWIYLTSNRATGVPARFSGSGSGTDYTLTISSLEPEDFAVYYCQQWSSNPYTFGQGTKLEIKR
notes: also called positive control anti-FGFR2 monoclonal antibody; anti-FGFR2 mAb
- EC50 of ADCC (NK cell killing of SNU-16 cells, LDH release) (FGFR2 on SNU-16 cells): 3.03 nM

- EC50 [1]: 0.0568 nM
- EC50 [2]: 0.122 nM and 0.16 nM
- IC50 for the blockade of PD-1 and PD-L1 binding (NFAT-luc reporter luminescence) [3]: 0.481 nM
- EC50 [4]: 0.482 nM
B2: anti-FGFR2/PD-1 bispecific antibody a (bispecific antibody, human IgG1, kappa)
heavy: not shown
light: EIVLTQSPATLSLSPGERATLSCRASSSVNYMYWYQQKPGQAPRPWIYLTSNRATGVPARFSGSGSGTDYTLTISSLEPEDFAVYYCQQWSSNPYTFGQGTKLEIKRTVAAPSVFIFPPSDEQLKSGTASVVCLLNNFYPREAKVQWKVDNALQSGNSQESVTEQDSKDSTYSLSSTLTLSKADYEKHKVYACEVTHQGLSSPVTKSFNRGEC
notes: Anti-FGFR2 IgG with an anti-PD-1 scFv (VL-L1-VH) on the C-terminus of each heavy chain; wild-type Fc; also called anti-FGFR2/PD-1 bispecific antibody molecule a

- EC50 [1]: 0.0615 nM
- EC50 [2]: 0.356 nM
B3: anti-FGFR2/PD-1 bispecific antibody d (bispecific antibody, human IgG1, kappa)
heavy: not shown
light: B2 light
notes: Anti-FGFR2 IgG with an anti-PD-1 scFv in VH-L1-VL order on the C-terminus of each heavy chain; also called anti-FGFR2/PD-1 bispecific antibody molecule d

- EC50 [1]: 0.0512 nM
- EC50 [2]: 0.141 nM
- IC50 for the blockade of PD-1 and PD-L1 binding (NFAT-luc reporter luminescence) [3]: 2.35 nM
- EC50 [4]: 0.634 nM
B4: anti-FGFR2/PD-1 bispecific antibody b (bispecific antibody, human IgG1, kappa)
heavy: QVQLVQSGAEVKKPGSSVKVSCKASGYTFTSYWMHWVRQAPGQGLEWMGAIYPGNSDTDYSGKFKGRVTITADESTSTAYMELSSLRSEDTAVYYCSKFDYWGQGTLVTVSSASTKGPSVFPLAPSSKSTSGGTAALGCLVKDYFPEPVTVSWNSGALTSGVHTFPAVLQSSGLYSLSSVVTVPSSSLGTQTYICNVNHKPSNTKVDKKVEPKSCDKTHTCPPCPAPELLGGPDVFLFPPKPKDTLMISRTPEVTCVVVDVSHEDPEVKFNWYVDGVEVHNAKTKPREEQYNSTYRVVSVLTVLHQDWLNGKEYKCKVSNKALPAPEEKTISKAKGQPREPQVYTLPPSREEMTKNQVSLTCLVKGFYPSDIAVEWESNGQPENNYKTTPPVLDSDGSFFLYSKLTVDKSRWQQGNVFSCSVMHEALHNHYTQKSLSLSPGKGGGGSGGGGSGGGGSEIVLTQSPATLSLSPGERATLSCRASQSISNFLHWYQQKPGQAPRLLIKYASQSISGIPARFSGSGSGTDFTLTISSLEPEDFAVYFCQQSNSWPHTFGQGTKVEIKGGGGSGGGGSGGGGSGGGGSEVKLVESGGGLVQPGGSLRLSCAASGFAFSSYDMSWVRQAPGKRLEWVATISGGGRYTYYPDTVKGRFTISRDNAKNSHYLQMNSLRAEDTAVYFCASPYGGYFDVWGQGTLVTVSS
light: B2 light
notes: also called anti-FGFR2/PD-1 bispecific antibody molecule b
- EC50 of ADCC (NK cell killing of SNU-16 cells, LDH release) (FGFR2 on SNU-16 cells): 4.62 nM
